Results published in the RNAGym collection of RNA variant scans (doi:10.7554/elife.90254).

B1: OR4K15 (parent)
chain: GUUAACGGUCAUAGGCCAUGGAAACUAGGAGCACCAUUUCGCUGCCAGUGAAGAAAUGAACAAAGAAAAUCUGGGCCAGGCAGGCAUCAAAAGAAAUAGUCUUGCGCUCAACCAGAAAGUCUGUAAUCAUUUUAAGGGUA

Variants of: B1
Assay: self-cleavage, relative activity (ratio to wild type); higher = more cleavage; in vitro, sequencing; the parent is a self-cleaving ribozyme

Compared with GUUAACGGUCAUAGGCCAUGGAAACUAGGAGCACCAUUUCGCUGCCAGUGAAGAAACGAACAAAGAAAAACUGGGCCAGGCAGGCAUCAAAAGAAAUAGUCUUGCGCUCAACCAGAAAGUCUGUAAUCAUUUUAAGGGUA [U57C U70A], GUUAACGGUCAUAGGCCAUGGAAACUAGGAGCACCAUUUCGCUGCCAGUGAAGAAACGAACAAAGAAAAUCUGGGCCAGGCAGGCAUCAAAAGAAAUAGUCUUGCGCUCAACCAGAAAGUCUGUAAUCAUUUUAUGGGUA [U57C A135U] is higher in self-cleavage: 0.68 for the first, 1.02 for the second.

First: GUUAACGGUCAUAGGCCAUGGAAACUAGGAGCACCAUUUCGCUGCCAGUGAAGAAACGAACAAAGAAAAUCUGGGCCAGGCAGGCAUCAAAAGAAAUAGUCUAGCGCUCAACCAGAAAGUCUGUAAUCAUUUUAAGGGUA [U57C U103A]
Second: GUUAACGGUCAUAGGCCAUGGAAACUAGGAGCACCAUUUCGCUGCCAGUGAAGAAACGAACAAAGAAAAUCUGGGCCAGGCAGGCAUCAAAAGAAAUAGUCUGGCGCUCAACCAGAAAGUCUGUAAUCAUUUUAAGGGUA [U57C U103G]
The self-cleavage of the first is higher: 0.15 for the first, 0.02 for the second.

Going from GUUAACGGUCAUAGGCCAUGGAAACUAGGAGCACCAUUUCGCUGCCAGUGAAGAAAGGAACAAAGAAAAUCUGGGCCAGGCAGGCAUCAAAAGAAAUAGUCUUGCGCUCAACCAGAAAGUCUGUAAUCAUUUUAAGGGUA [U57G] to GUUAACGGUCAUAGGCCAUGGAAACUAGGAGCACCAUUUCGCUGCCAGUGAAGAAACGAACAAAGAAAAUCUGGGCCAGGCAGGCAUCAAAAGAAAUAGUCUUGCGCUCAACCAGAAAGUCUGUAAUCAUCUUAAGGGUA [U57C U131C], the self-cleavage falls from 1.34 to 0.94.

Going from GUUAACGGUCAUAGGCCAUGGAAACUAGGAGCACCAUUUCGCUGCCAGUGAAGAAACGAACAAAGAAAAUCUGGGCCAGGCAGGCAUCAAAAGAAAUAGUCUUGCGCUCGACCAGAAAGUCUGUAAUCAUUUUAAGGGUA [U57C A110G] to GUUAACGGUCAUAGGCCAUGGAAACUAGGAGCACCAUUUCGCUGCCAGUGAAGAAACGAACAAAGAAAAUCUGGGCCAGGCAGGCAUCAAAAGAAAUAGUCUUGCGCUCAACCAGAAAGUCUGUAAUCAUUUUAAGGGCA [U57C U139C], the self-cleavage rises from 0.1 to 1.94.

Going from GUUAACGGUCAUAGGCCAUGGAAACUAGGAGCACCAUUUCGCUGCCAGUGAAGAAAGGAACAAAGAAAAUCUGGGCCAGGCAGGCAUCAAAAGAAAUAGUCUUGCGCUCAACCAGAAAGUCUGUAAUCAUUUUAGGGGUA [U57G A135G] to GUUAACGGUCAUAGGCCAUGGAAACUAGGAGCACCAUUUCGCUGCCAGUGAAGAAAGGAACAAAGAAAAUCUGGGCCAGGCAGGCAUCAAAAGAAAUAGUCUUGCGCUCAACCAGAAAGUCUGUAAUCGUUUUAAGGGUA [U57G A129G], the self-cleavage falls from 1.74 to 1.15.

Compared with GUUAACGGUCAUAGGCCAUGGAAACUAGGAGCACCAUUUCGCUGCCAGUGAAGAAAGGAACAAAGAAAAUCUGGGCCAGGCAGGCAUCAAAAGGAAUAGUCUUGCGCUCAACCAGAAAGUCUGUAAUCAUUUUAAGGGUA [U57G A94G], GUUAACGGUCAUAGGCCAUGGAAACUAGGAGCACCAUUUCGCUGCCAGUGAAGAAACGAACAAAGAAAAUCUGGGCCAGGCAGGCAUCAAAAGAAAUAGUCUUGCGCUCAACCAGAGAGUCUGUAAUCAUUUUAAGGGUA [U57C A117G] is lower in self-cleavage: 1.41 for the first, 0.84 for the second.

Compared with GUUAACGGUCAUAGGCCAUGGAAACUAGGAGCACCAUUUCGCUGCCAGUGAAGAAACGAACAAAGAAAAUCUGGGCCAGGCAGGCAUCAAAAGAAACAGUCUUGCGCUCAACCAGAAAGUCUGUAAUCAUUUUAAGGGUA [U57C U97C], GUUAACGGUCAUAGGCCAUGGAAACUAGGAGCACCAUUUCGCUGCCAGUGAAGAAACGAACAAAGAAAAUCUGGGCCAGGCAGGCAUCAAAAGAAAUAGUCUUGCGCUCAACCAGAAAGUCUGUAAUCAUUUUAAGUGUA [U57C G137U] is higher in self-cleavage: 1.09 for the first, 2.18 for the second.

Going from GUUAACGGUCAUAGGCCAUGGAAACUAGGAGCACCAUUUCGCUGCCAGUGAAGAAACGAACAAAGAAAAUCUGGGCCAGGCAGGCAUCAAAAGAAAUAGUCUUGCGCUCAACCAGAAAGUCUGUAAUCAUUUUAAGCGUA [U57C G137C] to GUUAACGGUCAUAGGCCAUGGAAACUAGGAGCACCAUUUCGCUGCCAGUGAAGAAAGGAACAAAGAAAAUCUGGGCCAGGCAGGCAUCAAGAGAAAUAGUCUUGCGCUCAACCAGAAAGUCUGUAAUCAUUUUAAGGGUA [U57G A91G], the self-cleavage falls from 0.73 to 0.52.

Compared with GUUAACGGUCAUAGGCCAUGGAAACUAGGAGCACCAUUUCGCUGCCAGUGAAGAAACGAACAAAGAAAAUCUGGGCCAGGCAGGCAUCAAAAGAAAUAGACUUGCGCUCAACCAGAAAGUCUGUAAUCAUUUUAAGGGUA [U57C U100A], GUUAACGGUCAUAGGCCAUGGAAACUAGGAGCACCAUUUCGCUGCCAGUGAAGAAACGAACAAAGAAAAUCUGGGCCAGGCAGGCAUCAAAAGAAAUAGUCUUGGGCUCAACCAGAAAGUCUGUAAUCAUUUUAAGGGUA [U57C C105G] is lower in self-cleavage: 0.4 for the first, 0.01 for the second.

Compared with GUUAACGGUCAUAGGCCAUGGAAACUAGGAGCACCAUUUCGCUGCCAGUGAAGAAACGAACAAAGAAAAUCUGGGCCAGGCAGGCAUCAAAAGAAAUAGUCUUGCGCUCAACCAGAAAGUCUGUAAUCAUUUUAAGGGUU [U57C A140U], GUUAACGGUCAUAGGCCAUGGAAACUAGGAGCACCAUUUCGCUGCCAGUGAAGAAACGAACAAAGAAAAUCUGAGCCAGGCAGGCAUCAAAAGAAAUAGUCUUGCGCUCAACCAGAAAGUCUGUAAUCAUUUUAAGGGUA [U57C G74A] is lower in self-cleavage: 1.78 for the first, 0.28 for the second.

With GUUAACGGUCAUAGGCCAUGGAAACUAGGAGCACCAUUUCGCUGCCAGUGAAGAAACGAACAAAGAAAAUCUGUGCCAGGCAGGCAUCAAAAGAAAUAGUCUUGCGCUCAACCAGAAAGUCUGUAAUCAUUUUAAGGGUA [U57C G74U] the self-cleavage was 0.39.
